In the supplement of paper PMC10567573:

B1: ZNF24 (parent)
chain: THTKEQILELVVLEQFVAILPKEL
B2: MFF (parent)
chain: YTEGISQRMRVPEKLKVAPPNADL

Variants of: B1
Test: protein stability index of a GFP-peptide fusion (GPS, HEK-293T) (PSI 1-6); higher = more stable
Conditions: c terminus: a fixed tail appended
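Further: lentivirally expressed fusions sorted by FACS into six bins by GFP to DsRed ratio, PSI derived from sequencing read proportions per bin multiplied by bin number.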

Protein stability index, by site and new letter:
I19: R 2.16, K 2.14, P 1.73, A 1.98, V 4.1, W 1.85, E 2.37, T 1.8, G 1.52, F 2.22, C 2.61, Q 2.01, Y 2.18, H 2.32, S 1.95, M 3.34, L 2.38, N 1.7, D 1.77
P21: Y 3.02, D 4.16, L 2.44, R 3.28, M 3.76, I 1.92, E 2.23, C 3.76, W 3.12, A 3.78, V 2.28, S 1.42, H 3.6, G 2.21, Q 2.66, K 3.31, N 3.62, F 1.92, T 2.57
V12: W 2.42, G 1.98, Y 2.64, H 1.8, S 2.03, L 2.12, A 1.83, F 2.93, K 2.07, D 2.27, E 2.22, M 2.51, T 1.99, N 2.14, Q 2.05, P 2.19, I 3.17, R 1.94, C 2.23
E23: M 3.72, A 2.59, C 3.17, S 2.01, L 1.68, F 2.69, V 2.76, P 3.16, R 2.77, H 3.33, N 2.97, Y 3.09, K 1.64, W 3.51, D 2.29, Q 2.54, T 1.75, I 2.56, G 3.15
E9: H 3.25, R 2.49, N 2.82, Q 2.69, L 2.62, P 2.93, K 2.77, Y 3.52, T 2.29, W 2.87, M 2.04, G 2.85, V 3.25, S 3.48
A18: W 2.51, D 2.32, K 2.49, L 2.04, S 1.95, T 2.2, P 2.48, V 2.58, E 2.1, Q 2.48, R 2.05, H 3.02, M 1.65, Y 2.59, C 3.45, N 2.67, G 2.88, F 1.44
F16: K 1.95, A 1.91, Y 1.76, N 2.21, L 3.14, C 1.77, W 2.54, G 1.69, H 2.13, M 2.5, Q 2.01, R 1.99, V 2.02, E 2.03, D 2.33, I 1.43, T 1.82, P 1.94, S 2.27
V17: C 2.49, Q 2.02, K 1.54, P 1.94, H 2.25, T 1.97, W 2.19, Y 2.53, L 2.47, S 2.95, A 3.14, N 1.72, D 1.71, R 1.66, F 2.47, I 2.94, G 1.52, E 1.91, M 2.31
L13: K 1.69, N 1.73, F 2.47, H 1.76, T 2.77, R 1.85, D 2.29, P 2.42, I 3.27, E 1.9, Q 2.34, Y 2.88, G 1.84, A 1.51, S 1.55, M 2.18, W 2.67, C 1.98
L20: C 2.24, R 2.61, H 1.67, W 4.08, M 1.95, T 2.44, V 2.19, S 2.33, K 1.63, Q 3.05, G 1.94, I 3.78, D 2.6, P 2.78, A 3.07, N 1.83, E 2.23, Y 1.46, F 2.83
L24: G 2.16, W 2.54, T 2.7, Q 1.81, R 2.47, A 2.57, K 2.33, N 1.06, M 2.8, F 3.54, I 2.4, E 1.7, Y 3.41, V 4.07, H 2.66, C 2.88, P 4.16, D 1.67, S 2.86
V11: K 1.47, E 1.86, H 2.18, S 2.03, D 2.36, P 2.67, F 3.28, L 2.43, C 2.51, Q 2.05, G 2.05, N 2.15, I 3.03, W 3.42, A 2.1, Y 1.91, R 1.76, T 2, M 2.6
Q15: P 2.4, S 2.93, I 2.87, G 2.95, Y 2.18, E 2.55, L 2.44, A 2, F 2.79, V 3.51, T 3.75, M 2.63, K 1.75, N 2.81, H 2.53, R 2.81, W 2.82, D 1.91, C 1.66
K22: R 2.78, P 2.18, S 3.45, Y 2.9, H 2.12, V 2.71, N 2.39, A 2.63, D 3.16, W 2.08, F 3.51, C 2.67, M 3.15, T 2.89, G 4.16, Q 2.7
E14: C 2.45, G 3.21, F 2.48, L 2.05, P 2.12, N 3.68, K 2.61, Y 3.47, I 3.12, A 2.14, Q 2.97, D 2.24, S 2.53, W 3.05, T 2.64, M 2.67, V 1.16, R 2.95, H 2.94
L10: I 2.02, F 2.35, R 1.72, A 2.28, P 2.09, S 1.72, G 1.7, H 1.65, C 2.42, N 2.23, K 2.04, V 2.5, Y 2.69, T 2.03, M 2.69, Q 2.26, D 2.69, E 2.12

Variants of: B2
Test: as above
Conditions: c terminus: a fixed tail appended

Protein stability index: each site, then its substitutions
T2: N 3.69, L 2.13, M 3.46, I 1.65, F 3.2, W 3.17, Q 3.03, Y 3.2, D 4.18, V 2.46, H 2.69, R 3.88, S 3.81, G 3.85, E 4.85, C 2.65, K 3.92, A 2.72, P 3.48
Y1: I 3.87, K 4.27, L 4.21, R 4.22, D 4.48, C 4.21, Q 4.41, T 4.31, H 4.52, W 4.21, N 4.67, M 4.59, F 2.52, A 4.62, E 4.55, G 4.57, S 4.48, P 4.64, V 4.25
E3: A 2.96, C 2.28, D 3.24
